The results in this text go back to paper PMC8797792.

Square brackets hold non-standard residues; d marks the D form. Ends that are not written are not given here. pT = C[C@@H](OP(=O)(O)O)[C@H](N)C(=O)O; pS = N[C@@H](COP(=O)(O)O)C(=O)O

The experiment has as its target GST-Fbw7 (residues 263 to 707)-Skp1 complex, Q969H0. The experiment is described as follows: AlphaScreen or HTRF. A general note: Bead proximity is the source of the signal in Alpha formats.

B1: Myc T58 degron peptide, diphosphorylated (pT58/pS62) (peptide)
peptide: EDIWKKFELLP[pT]PPL[pS]PSRR
Take B1: the IC50 is 9.8 nM.

Usually IC50 stands for the concentration at which inhibition is half-maximal. A higher IC50 goes with weaker potency in that assay.
